Results published in publication PMC2248580 (BMC Structural Biology, 2007).

Target: T1, human activated blood coagulation factor X (FXa) (human)
T1 construct: also called factor Xa; Stuart factor
Assay: SPR; […]; 37°C; HBS (10 mM Hepes, 150 mM NaCl, 5 mM CaCl2, 0.005% P20, pH 7.4); Langmuir fit; […]
Settings: both partners purified

T1 sequence (P00742 whole entry): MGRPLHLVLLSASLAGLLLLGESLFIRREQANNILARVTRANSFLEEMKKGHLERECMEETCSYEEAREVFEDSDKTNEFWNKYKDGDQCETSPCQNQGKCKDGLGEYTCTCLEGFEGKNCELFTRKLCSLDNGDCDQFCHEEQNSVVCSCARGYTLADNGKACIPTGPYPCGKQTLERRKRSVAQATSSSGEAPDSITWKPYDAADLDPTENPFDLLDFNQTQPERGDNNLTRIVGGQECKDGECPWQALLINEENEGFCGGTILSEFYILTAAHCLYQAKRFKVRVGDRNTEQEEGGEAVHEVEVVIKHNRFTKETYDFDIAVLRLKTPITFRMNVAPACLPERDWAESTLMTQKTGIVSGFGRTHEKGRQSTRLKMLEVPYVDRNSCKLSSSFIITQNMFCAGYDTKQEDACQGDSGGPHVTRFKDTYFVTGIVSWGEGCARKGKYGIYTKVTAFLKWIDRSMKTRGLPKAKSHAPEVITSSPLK

Row | Binder | Kd [µM] | koff [s⁻¹] | kon [M⁻¹ s⁻¹]
1 | VRV-PLVIII, the PLA2 from Daboia russelli pulchella venom (enzyme) SLLEFGKMILEETGKLAIPSYSSYGCYCGWGGKGTPKDATDRCCFVHDCCYGNLPDCNPKSDRYKYKRVNGAIVCEKGTSCENRICECDKAAAICFRQNLNTYSKKYMLYPDFLCKGELKC | 0.578 ± 0.015 | 0.026 | 45000
2 | Vbb, the PLA2 from Vipera berus berus venom (enzyme, γ-carboxyglutamic acid in the Gla domain (residues 1–39)) NLFQFGNMINHMVGKHAVWSYLSYGCYCGWGGQGKPQDATDRCCFVHDCCYGRANGCDPKLSTYSYNFQNGNIVCGNKYGCLRHICECDRVAAICFQKNMNTYNKKYKNYSSSNCQENSDKC | 0.83 ± 0.015 | 0.025 | 30000
